# Biological target: human FcRn fused to a His-tag and glutathione S transferase (FcRn-His-GST), complex of FcRn heavy chain with beta-2-microglobulin (human) (UniProt P55899)
# Test: AlphaScreen competition
row,FcRn Binding ratio Variant / WT,Substance
1,1.14,P271S (antibody)
2,1.19,E233T (antibody)
3,1.07,V264F (antibody)
4,1.64,E233W (antibody)
5,1.36,G237R (antibody)
6,2.46,E272T (antibody)
7,1.31,L235V (antibody)
8,1.39,G237N (antibody)
9,2.54,L234G (antibody)
10,1.32,L235N (antibody)
11,1.12,P238T (antibody)
12,1.74,D265G (antibody)
13,1.19,Q295V (antibody)
14,1.27,P329K (antibody)
15,1.1,Y300M (antibody)
16,3.2,I332N (antibody)
17,1.33,H285W (antibody)
18,1.55,P228K (antibody)
19,1.04,S239R (antibody)
20,1.23,E269K (antibody)
21,1.17,V266I (antibody)
22,1.01,P271A (antibody)
23,1.05,E272I (antibody)

row,FcRn Binding ratio Variant / WT,Substance
1,5.49,T260E (antibody)
2,1.08,K274I (antibody)
3,1.46,G236E (antibody)
4,1.93,H285E (antibody)
5,4.89,T225E (antibody)
6,9.27,V262E (antibody)
7,1.09,E294I (antibody)
8,1.66,V264T (antibody)
9,73.4,G237M (antibody)
10,1.35,G236V (antibody)
11,1.11,K320W (antibody)
12,1.25,L234E (antibody)
13,1.47,G237K (antibody)
14,1.78,A330V (antibody)
15,5.48,A330P (antibody)
16,1.32,G237T (antibody)
17,1.38,E269V (antibody)
18,1.51,L235S (antibody)
19,1.92,V282Y (antibody)
20,1.99,F241L (antibody)
21,1.39,G237Q (antibody)
22,1.51,E269F (antibody)
23,1.31,S239D/E272Y/I332E (antibody)

row,FcRn Binding ratio Variant / WT,Substance
1,1.24,I332H (antibody)
2,2,N276W (antibody)
3,3.99,S298H (antibody)
4,1.21,N276L (antibody)
5,5.13,V264S (antibody)
6,1.49,S239D/E272S/I332E (antibody)
7,1.45,R292E (antibody)
8,1.71,Y296I (antibody)
9,5.66,D221K (antibody)
10,1.64,P329R (antibody)
11,4.63,F243W (antibody)
12,3.09,S239D/N297D/I332E (antibody)
13,1.23,A327Y (antibody)
14,1.02,L235Y (antibody)
15,1.75,G236A (antibody)
16,2.13,S298T (antibody)
17,1.52,Y278I (antibody)
18,2.74,S324G (antibody)
19,2.8,G237P (antibody)
20,1.07,Y300G (antibody)
21,1.03,L234I/L235D (antibody)

# Reference: patent publication US20090041770A1
